Results from article PMC4115224, “Real-Time Interaction between TBP and the TATA Box of the Human Triosephosphate Isomerase Gene Promoter in the Norm and Pathology”.

B1: TPI TATA box, wild type (T allele) (dsDNA)
DNA 1: GCTCTATATAAGTGG
DNA 2: CCACTTATATAGAGC
B2: TPI TATA box, -24T>G SNP (G allele) (dsDNA)
DNA 1: GCTCTATAGAAGTGG
DNA 2: CCACTTCTATAGAGC

Experiments:
[1] = molecular target: T1, TATA-binding protein (TBP) (human, UniProt P20226 1-339); test: stopped-flow FRET; kon (1.1 ± 0.1)e6 M-1 s-1; koff (2.8 ± 0.1)e-3 s-1; KA 3.7e8 M-1; 25 C; 25 C; 0.1 uM DNA duplex; TBP 0.1-2 uM (T allele) or 0.4-4 uM (G allele); buffer, salt and pH not given in the material; settings: protein: recombinant; label: Cy3/Cy5 FRET pair at the duplex ends
[2] = molecular target: T1, TATA-binding protein (TBP); test: stopped-flow FRET; kon (0.2 ± 0.1)e6 M-1 s-1; koff (8.9 ± 1.2)e-2 s-1; KA 2.3e6 M-1; 25 C; 25 C; 0.1 uM DNA duplex; TBP 0.1-2 uM (T allele) or 0.4-4 uM (G allele); buffer, salt and pH not given in the material; settings: protein: recombinant; label: Cy3/Cy5 FRET pair at the duplex ends

T1 sequence (P20226 whole entry): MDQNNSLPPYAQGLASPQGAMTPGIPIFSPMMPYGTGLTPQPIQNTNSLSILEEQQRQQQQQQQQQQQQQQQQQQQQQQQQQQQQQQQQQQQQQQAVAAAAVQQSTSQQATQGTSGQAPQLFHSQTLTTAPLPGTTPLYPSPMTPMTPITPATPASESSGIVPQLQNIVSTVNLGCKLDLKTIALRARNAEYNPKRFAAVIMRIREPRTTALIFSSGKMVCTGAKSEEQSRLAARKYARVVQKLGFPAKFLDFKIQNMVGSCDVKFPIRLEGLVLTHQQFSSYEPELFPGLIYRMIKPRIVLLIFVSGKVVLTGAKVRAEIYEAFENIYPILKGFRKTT

| Binder | Kd [1] [nM] | Kd [2] [nM] |
| --- | --- | --- |
| B1 | 2.7 |  |
| B2 |  | 400 |
